Target: human CCR8 (human) (UniProt P51685)
Experiment: cell-based or functional assay

UniProt P51685, sequence (P51685 whole entry): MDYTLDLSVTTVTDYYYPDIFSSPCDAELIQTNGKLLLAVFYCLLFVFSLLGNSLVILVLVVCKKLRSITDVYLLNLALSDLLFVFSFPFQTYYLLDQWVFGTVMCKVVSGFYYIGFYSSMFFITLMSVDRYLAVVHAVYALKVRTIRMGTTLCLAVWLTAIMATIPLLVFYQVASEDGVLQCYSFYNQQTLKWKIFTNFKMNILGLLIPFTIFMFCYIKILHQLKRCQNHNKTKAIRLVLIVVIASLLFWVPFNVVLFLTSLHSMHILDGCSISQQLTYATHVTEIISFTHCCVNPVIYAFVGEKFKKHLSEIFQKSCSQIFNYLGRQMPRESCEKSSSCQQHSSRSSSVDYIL

## anti-human CCR8 antibody (clone name: L263G8, BioLegend, Inc.)
  inhibition of the cytotoxic activity of aCCR8-2-CAR-12-expressing KHYG-1 cells against ATN-1 cells (calcein), antibody at 33 nM added 10 minutes before the effector cells: > 50%
